Paper PMC9245660 (Proceedings of the National Academy of Sciences of the …, 2022)

Target: Tom22-T1′ (Tom22 without helix H1) (human) (UniProt Q9NS69)
Assay: pull-down

**Q.** For Su9-TEV-DHFR-EGFP-Strep, which decrease in the binding ability against Tom22 before cleavage is on record?
**A.** 75%
